Measured values taken from patent US20250276043A1, “Pharmaceutical Composition Containing GLP-1 Compound” (Gan & Lee Pharmaceuticals Co., Ltd., priority 2021, published 2025).

Assays:
Kkay mice = experiment: Long-term pharmacodynamic study in type 2 diabetes Kkay mice (Example 18); type: in vivo; conditions: subcutaneous, 100 and 300 μg/kg; for Reduction in HbA1c (FIG. 5c): 48 hours after the final administration; for Hypoglycemic effect, blood glucose and AUC (FIGS. 5a-5b): once every 2 days, 16 doses
Experimental: Compound 5 from Example 5 and Compound 2 from Example 2 were tested on type 2 diabetes Kkay mice. The mice were administered different doses of Compound 5 and Compound 2, at 100 and 300 μg/kg, respectively. The effects of the GLP-1 compounds in the GLP-1 pharmaceutical composition of the present invention on reducing blood glucose levels and HbA1c were measured.
Male Kkay mice, 12-14 weeks old, were housed in suitable cages under barrier conditions with free access to standard food and purified water. The environmental conditions were controlled at a relative humidity of 40%-60% and a temperature of 22° C.-24° C. After an adaptation period of 1-2 weeks, the mice were used for the experiment.
Basal blood glucose levels were assessed on the day of the experiment, and the mice were weighed. Based on random blood glucose and body weight, the diabetic mice were divided into a solvent group or a treatment group. The mice in the treatment group received subcutaneous injections of the GLP-1 compounds at doses of 100 and 300 μg/kg. The solvent consisted of propylene glycol (14 mg/ml), phenol (5.5 mg/ml), and disodium hydrogen phosphate (1.133 mg/ml) at pH 7.4.
Subcutaneous administration was performed at the nape of the neck (50 μl/10 g body weight). The GLP-1 compound in the GLP-1 pharmaceutical composition of the present invention or the solvent were administered at approximately 10:00 am (time 0), once every 2 days for a total of 16 doses. Blood glucose levels in the mice were evaluated at 3 hours, 6 hours, 1 day, and 2 days after the initial administration. HbA1c was measured 48 hours after the final administration using EDTA anticoagulant.

[1] = Chemical stability: related substances by HPLC after storage (Example 17); type: physicochemical
Experimental: The content of related impurities was determined using high-performance liquid chromatography (HPLC) on a Waters Kromasil 100-3.5-C8 (4.6*250 mm) column. The column temperature was set at 35° C., and the sample chamber temperature was set at 5° C. The elution was performed at a flow rate of 1.0 ml/min. The eluent consisted of the following components: • Phase A: 90 mM potassium dihydrogen phosphate and 10% acetonitrile (v/v), pH 2.4 • Phase B: 75% acetonitrile (v/v)
The gradient was as follows: linear change of 75%/25% A/B to 55%/45% A/B from 0 to 5 minutes, linear change from 5 to 12 minutes to 50%/50% A/B, linear change from 12 to 42 minutes to 40%/60% A/B, linear change from 42 to 60 minutes to 10%/90% A/B, linear change from 60 to 61 minutes to 75%/25% A/B, and steady gradient of 75%/25% A/B from 61 to 70 minutes.
Detection wavelength was set at 214 nm, flow rate at 1.0 ml/min, and injection volume at 15 μl.

[2] = oral semaglutide tablets (RYBELSUS) with SNAC, clinical studies; cited from earlier work

N-ε^26-[2-(2-[2-(2-[2-(2-[4-(21-carboxyheneicosanoylamino)-4(S) -carboxybutanoylamino]ethoxy)ethoxy]acetylamino)ethoxy]ethoxy)acetyl][Gly8, Arg34]GLP-1-(7-37) peptide [Compound 5]
Reduction in HbA1c (FIG. 5c) (Kkay mice): significant reduction in HbA1c
Hypoglycemic effect, blood glucose and AUC (FIGS. 5a-5b) (Kkay mice): significant hypoglycemic effects
Maximum individual impurity % ([1]; 25° C./60% RH, 15 month): 0.97%
Purity of compound 5 % ([1]; 25° C./60% RH, 15 month): 96.14%
Total impurities % ([1]; 25° C./60% RH, 15 month): 3.86%
Maximum individual impurity % ([1]; 30° C./65% RH, 1 month): 0.76%
Purity of compound 5 % ([1]; 30° C./65% RH, 1 month): 96.85%
Total impurities % ([1]; 30° C./65% RH, 1 month): 3.15%
Maximum individual impurity % ([1]; 30° C./65% RH, 2 month): 1.03%
Purity of compound 5 % ([1]; 30° C./65% RH, 2 month): 96.67%
Total impurities % ([1]; 30° C./65% RH, 2 month): 3.33%
Maximum individual impurity % ([1]; 30° C./65% RH, 3 month): 0.93%
Purity of compound 5 % ([1]; 30° C./65% RH, 3 month): 95.19%
Total impurities % ([1]; 30° C./65% RH, 3 month): 4.81%
Maximum individual impurity % ([1]; 30° C./65% RH, time 0): 0.73%
Purity of compound 5 % ([1]; 30° C./65% RH, time 0): 96.5%
Total impurities % ([1]; 30° C./65% RH, time 0): 3.5%

N-ε^26-[2-(2-[2-(4-[19-carboxynonadecanoylamino]-4(S) -carboxybutanoylamino)ethoxy]ethoxy)acetyl][Gly8, Arg34]GLP-1-(7-37) peptide [Compound 2]
Reduction in HbA1c (FIG. 5c) (Kkay mice): significant reduction in HbA1c
Hypoglycemic effect, blood glucose and AUC (FIGS. 5a-5b) (Kkay mice): significant hypoglycemic effects

semaglutide
Bioavailability [2]: around 1%
